Holding throughout (assay): cell-based or functional assay
For assay [1], the target named is HIV-1 APV-6 envelope glycoprotein (Env) on pseudovirus (HIV-1).
In assay [2] the target is HIV-1 Env of isolate 98CN006 (CRF08 BC) (HIV-1 isolate 98CN006).
Assay [3] concerns the target HIV-1 Env of isolate MGRM-Chronic-B-002, clade B, on pseudovirus (HIV-1).
Assay [4] addresses HIV-1 Env of isolate MGRM-D-011 (clade D pseudovirus) (HIV-1).
Assay [5] deals with HIV-1 Env of isolate MGRM-D-021 (clade D pseudovirus) (HIV-1).
Assay [6] has as its target HIV-1 Env of isolate MGRM-D-022 (clade D pseudovirus) (HIV-1).
Assay [7] deals with HIV-1 Env of isolate MGRM-D-029 (clade D pseudovirus) (HIV-1).
The target in assay [8] is HIV-1 Env of isolate THR0.18 (Acute), clade B, on pseudovirus (HIV-1).
Assay [9] concerns the target HIV-1 Env of pseudovirus CMU02 (clade CRF01_AE) (HIV-1).
The target in assay [10] is HIV-1 Env of pseudovirus MGRM-AE-002 (clade CRF01_AE) (HIV-1).
Assay [11] concerns the target HIV-1 Env of pseudovirus MGRM-AE-004 (clade CRF01_AE) (HIV-1).
Assay [12] has as its target HIV-1 Env of pseudovirus MGRM-F1-020 (HIV-1).
Assay [13] concerns the target HIV-1 envelope glycoprotein (Env) of isolate 94UG103, clade A (HIV-1).
The target of assay [14] is HIV-1 envelope glycoprotein (Env) of isolate MGRM-A-010, clade A (HIV-1).
Assay [15] deals with HIV-1 envelope glycoprotein (Env) of isolate MGRM-A-011, clade A (HIV-1).
Assay [16] addresses HIV-1 envelope glycoprotein (Env) of isolate MGRM-A-014, clade A (HIV-1).
For assay [17], the target named is aMLV envelope protein on pseudovirus (negative control).
The target of assay [18] is HIV-1 Env of isolate 92TH021 (pseudovirus) (HIV-1).
For assay [19], the target named is HIV-1 Env of isolate 92UG037 (HIV-1).
Assay [20] deals with HIV-1 Env of isolate 92WR009 (HIV-1).
In assay [21] the target is HIV-1 Env of isolate 92WR024 (HIV-1).
The target in assay [22] is HIV-1 Env of isolate 98CN006 (HIV-1).
In assay [23] the target is HIV-1 Env of isolate MG RM-D-001 (HIV-1).
The target of assay [24] is HIV-1 Env of isolate MG RM-D-004 (HIV-1).
Assay [25] concerns the target HIV-1 Env of isolate MGRM-A-007 (subtype A) (HIV-1).
Assay [26] concerns the target HIV-1 Env of isolate MGRM-AE-006 (subtype AE) (HIV-1).
Assay [27] addresses HIV-1 Env of isolate MGRM-C-004 (subtype C) (HIV-1).
The target in assay [28] is HIV-1 Env of isolate MGRM-Chronic-B-004 (subtype B) (HIV-1).
Assay [29] deals with HIV-1 Env of isolate VLGCB3 (subtype B) (HIV-1).
For assay [30], the target named is HIV-1 envelope glycoprotein (Env) of isolate MGRM-C-013 (HIV-1).
Assay [31] has as its target HIV-1 APV17 Env (pseudovirus, clade B) (HIV-1).
Assay [32] addresses HIV-1 APV6 Env (pseudovirus, clade B) (HIV-1).
The target in assay [33] is HIV-1 Env of isolate MGRM-D-001 (clade D), on pseudovirus (HIV-1).
Assay [34] addresses aMLV envelope (negative control pseudovirus).

Bounds are passed on as bounds.

1443_C16 (PG16) (TCN-116) (antibody), sequence (VH): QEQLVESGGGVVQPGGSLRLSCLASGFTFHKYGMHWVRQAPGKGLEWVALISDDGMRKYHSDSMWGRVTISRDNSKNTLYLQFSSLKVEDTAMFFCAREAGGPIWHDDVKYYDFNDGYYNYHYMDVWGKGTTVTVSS
1443_C16 (PG16) (TCN-116) (antibody), sequence (VL): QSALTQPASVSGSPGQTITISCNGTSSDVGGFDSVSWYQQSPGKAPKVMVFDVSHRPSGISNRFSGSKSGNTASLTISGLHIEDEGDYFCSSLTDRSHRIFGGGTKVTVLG
5345_I01 (PGT-137) (antibody), sequence (VH): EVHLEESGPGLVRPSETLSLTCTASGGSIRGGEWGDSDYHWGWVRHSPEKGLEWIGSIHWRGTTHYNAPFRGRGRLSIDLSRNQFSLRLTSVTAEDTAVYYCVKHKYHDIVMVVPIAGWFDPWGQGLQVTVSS
5345_I01 (PGT-137) (antibody), sequence (VL): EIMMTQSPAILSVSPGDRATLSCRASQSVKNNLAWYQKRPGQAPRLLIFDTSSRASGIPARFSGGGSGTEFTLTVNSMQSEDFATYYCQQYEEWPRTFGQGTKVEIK
5329_C19 (PGT-136) (antibody), sequence (VH): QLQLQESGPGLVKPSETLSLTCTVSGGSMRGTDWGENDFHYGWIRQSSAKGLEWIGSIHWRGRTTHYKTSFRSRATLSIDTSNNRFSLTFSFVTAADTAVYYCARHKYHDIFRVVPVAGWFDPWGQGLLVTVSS
5329_C19 (PGT-136) (antibody), sequence (VL): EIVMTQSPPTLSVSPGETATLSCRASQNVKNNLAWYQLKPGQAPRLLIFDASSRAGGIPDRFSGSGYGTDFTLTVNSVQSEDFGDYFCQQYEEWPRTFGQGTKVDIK

For 1443_C16 (PG16) (TCN-116) (antibody), the IC50, pseudovirus neutralization in assay [1] was 0.08 µg/mL. The IC50 (µg/ml), pseudovirus neutralization was above 50 µg/mL in assay [2]; 3.06 µg/mL in [3]; 0.01 µg/mL in assay [4]; above 50 µg/mL in assay [5]; above 50 µg/mL in assay [6]; above 50 µg/mL in assay [7]. The IC50 (µg/ml), pseudovirus neutralization in assay [8] was found to be 1.34 µg/mL; in [12], 4.35 µg/mL; in [13], 0.04 µg/mL; in [14] it was 0.004 µg/mL; in assay [15] it was 0.24 µg/mL; in assay [16] it was 20.3 µg/mL. The IC50 in [9] stood at 43.6 µg/mL; in assay [10] it was 0.01 µg/mL; in [11], 0.002 µg/mL. This substance yielded an IC90 (pseudovirus neutralization) in assay [17] above 50 µg/mL.
For 2G12 (antibody), in [1], the IC50, pseudovirus neutralization was 5.3 µg/mL. Further, the IC50 (µg/ml), pseudovirus neutralization was above 50 µg/mL in assay [2]; above 50 µg/mL in assay [3]; 1.5 µg/mL in assay [4]; 23 µg/mL in assay [5]; above 50 µg/mL in assay [6]; above 50 µg/mL in assay [7]. The IC50 (µg/ml), pseudovirus neutralization in [8] was above 50 µg/mL; in assay [12], above 50 µg/mL; in assay [13], 48.1 µg/mL; in [14], 17 µg/mL; in [15] it was above 50 µg/mL; in [16] it was above 50 µg/mL. Also, the IC50 in [9], in [10] and in assay [11] was above 50 µg/mL throughout. This substance also came in with an IC90 (pseudovirus neutralization) in assay [17] above 50 µg/mL.
5136_H01 (PGT-131) (antibody): the Primary Neutralization Index (B cell culture supernatant) in assay [18] is 354. Moreover, the IC50 in assay [19] was 0.048 µg/mL; in [20], 3.12 µg/mL; in assay [21] it was above 50 µg/mL. The IC50 (µg/mL), pseudovirus neutralization in assay [22] is 35.3 µg/mL; in assay [23], above 50 µg/mL; in assay [24] it was 2.01 µg/mL; in assay [25], above 50 µg/mL; in assay [26], 0.026 µg/mL; in assay [30] it was above 50 µg/mL. Further, the IC50 neutralization in assay [27] was 3.71 µg/mL; in assay [28], 0.04 µg/mL; in assay [29], above 50 µg/mL.
5343_B08 (PGT-135) (antibody): the IC50 neutralization is above 10 µg/mL in assay [31]; above 10 µg/mL in assay [32]; 0.046 µg/mL in [27]; above 50 µg/mL in assay [28]; 0.142 µg/mL in assay [29]. The figures for the IC50 in [19], in assay [20] and in assay [21] were 3.67 µg/mL, above 50 µg/mL and above 50 µg/mL, respectively. Further, the IC50 (µg/mL), pseudovirus neutralization in [22] was 0.429 µg/mL; in [23], above 50 µg/mL; in [24] it was above 50 µg/mL; in assay [25], above 50 µg/mL; in assay [26], above 50 µg/mL; in assay [30], above 50 µg/mL. Further, the IC50, pseudovirus neutralization in [33] was above 10 µg/mL. The same substance came in with an IC50 (neutralizing activity, pseudovirus) in assay [34] above 10 µg/mL.
For the substance 5147_N06 (PGT-130) (antibody), the IC50 neutralization in assay [31] was above 10 µg/mL; in [32] it was above 10 µg/mL; in [27], 2.76 µg/mL; in assay [28] it was 0.01 µg/mL; in [29], 4.6 µg/mL. The same substance yielded a Polyclonal Transfectant Neutralization Index in [18] of 4.2. The substance also registered a Primary Neutralization Index (B cell culture supernatant) in assay [18] of 538. Further, the values for the IC50 in assay [19], in assay [20] and in [21] were 0.061 µg/mL, 1.27 µg/mL and above 50 µg/mL, respectively. Also, the IC50 (µg/mL), pseudovirus neutralization in assay [22] was 0.258 µg/mL; in assay [23], above 50 µg/mL; in assay [24], 1.21 µg/mL; in assay [25], above 50 µg/mL; in assay [26], 0.009 µg/mL; in assay [30] it was above 50 µg/mL. In assay [33], the IC50, pseudovirus neutralization was above 10 µg/mL.
Regarding 5345_I01 (PGT-137) (antibody), the half-inhibitory concentration (IC50) in [19], in assay [20] and in assay [21] was above 50 µg/mL each time. In addition, the IC50 (µg/mL), pseudovirus neutralization is 1.22 µg/mL in [22]; above 50 µg/mL in assay [23]; above 50 µg/mL in [24]; above 50 µg/mL in [25]; above 50 µg/mL in assay [26]; above 50 µg/mL in [30]. Further, the IC50 neutralization is 0.026 µg/mL in [27], above 50 µg/mL in [28] and 3.36 µg/mL in [29].
In turn, 5114_A19 (PGT-128) (antibody) returned a Polyclonal Transfectant Neutralization Index in assay [18] of 10. In addition, the Primary Neutralization Index (B cell culture supernatant) in assay [18] was 6.6. Besides, the IC50 was 0.006 µg/mL in [19], 0.812 µg/mL in [20] and above 50 µg/mL in assay [21]. Besides, the IC50 (µg/mL), pseudovirus neutralization in assay [22] was 0.015 µg/mL; in assay [23] it was 0.138 µg/mL; in assay [24] it was 24.9 µg/mL; in assay [25] it was above 50 µg/mL; in [26] it was 0.044 µg/mL; in assay [30], above 50 µg/mL. Also, the results for the IC50 neutralization in assay [27], in [28] and in [29] were 0.025 µg/mL, 0.009 µg/mL and 0.012 µg/mL, respectively.
On to 1495_C14 (PGC14) (antibody), for which the IC50, pseudovirus neutralization in assay [1] turned out to be 7.41 µg/mL. Further, the IC50 (µg/ml), pseudovirus neutralization in assay [2], in [3], in assay [4], in assay [5], in [6] and in assay [7] was above 50 µg/mL in each case. In addition, the IC50 (µg/ml), pseudovirus neutralization in assay [8], in assay [12], in assay [13], in [14], in assay [15] and in assay [16] was above 50 µg/mL throughout. The IC50 in assay [9], in [10] and in [11] was above 50 µg/mL in each case.
For 5329_C19 (PGT-136) (antibody), the IC50 neutralization in assay [31] was above 10 µg/mL; in [32], above 10 µg/mL; in [27], 0.034 µg/mL; in [28], above 50 µg/mL; in [29] it was above 50 µg/mL. For the same substance, the IC50 in assay [19], in assay [20] and in assay [21] was above 50 µg/mL each time. Further, the IC50 (µg/mL), pseudovirus neutralization in [22] was 0.406 µg/mL; in assay [23] it was above 50 µg/mL; in assay [24], above 50 µg/mL; in [25], above 50 µg/mL; in [26] it was above 50 µg/mL; in [30], above 50 µg/mL. In assay [33], this substance showed an IC50, pseudovirus neutralization above 10 µg/mL. Moreover, in assay [34], the IC50 (neutralizing activity, pseudovirus) was above 10 µg/mL.

One may read the IC50 as the concentration that inhibits the measured activity by half. Lower therefore signals inhibition by little substance.

The values above are taken from US20250320281A1.
